The values below come from paper PMC11994974 (Virus Research, 2025).

For assay [1], the target named is recombinant NP of influenza A/PR/8/34 (H1N1) purified from bacteria (Influenza A virus A/Puerto Rico/8/1934 …, UniProt P03466). As to the kind of experiment: far-Western, overlay or dot blot.
Assay [2] concerns the target NP in H1N1 viral lysate (A/Puerto Rico/8/34) (Influenza A virus A/Puerto Rico/8/1934 …, UniProt P03466). As to the kind of experiment: far-Western, overlay or dot blot.
For assay [3], the target named is NP WT 1–498 (deletion library, wild type) (Influenza A virus A/California/07/2009 …, UniProt C6KQ05, strain). Put plainly: far-Western, overlay or dot blot.
Assay [4] concerns the target recombinant nucleoprotein (NP) of influenza A/Brisbane/10/2007 (H3N2) (Influenza A virus A/Brisbane/10/2007 …, UniProt P03466, strain). Put plainly: BLI. Background: BLI is a label-free optical method that tracks binding on a fibre tip over time.

As usually defined, the Kd is the constant that tells how readily two partners part at equilibrium.

B1: anti-NP mouse monoclonal antibody HB65 (antibody, V domains shown)
VH: EVKLVESGGALVNPGGSLKLSCAASGFIFSSYAMSWIRQTPEKRLEWVASTSGGGTTYYLDSVRGRFTISRDNARRILYLQMTSLRSEDTAIYFCGRDGNWFTSWGQGTLVTVSI
VL: NIVMTQSPKSMSMSVGERVTLTCKASENVVTYVSWYQQKPEQSPKLLIYGASNRYTGVPDRFTGSGSATDFTLTISSVQAEDLADYHCGQGYSYPYTFGGGTKLEIK
In the case of B1, the binding result in assay [1], in assay [2] and in assay [3] was “binds” each time. In assay [4], the equilibrium dissociation constant (Kd) was found to be 120 ± 21 nM.
